We go through 31 sequences from the supplement of paper PMC9170038.

Data set [1] has as its system MS2 coat protein. The data set is described as follows: apparent KD of MS2 coat protein; designed switch direction (-1 OFF switch, 1 ON switch): 1; higher = weaker reporter binding. As to conditions: Eterna round: R98. The procedure:
(§1)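 RNA-MaP: designed FMN/MS2 RNA switches (84 nt design region) are transcribed on-chip within common flanks and titrated with SNAP-549-labelled MS2 coat protein (about 1-3000 nM) in 100 mM Tris pH 7.5, 80 mM KCl, 4 mM MgCl2, without or with 200 uM FMN. Median apparent KD per design; activation ratio = KD,OFF / KD,ON.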

In data set [2] the test system is MS2 coat protein. The data set is described as follows: apparent KD of MS2 coat protein; higher = weaker reporter binding. As to conditions: Eterna round: R101. As for the experimental part: as §1
Data set [3] concerns MS2 coat protein. The data set is described as follows: apparent KD of MS2 coat protein, switch OFF state (with FMN for OFF switches, without FMN for ON switches); designed switch direction (-1 OFF switch, 1 ON switch): 1; higher = weaker reporter binding. The conditions noted are these: FMN input: 0 or 200 uM; Eterna round: R93 (includes R88 designs). The method, boiled down: (§2)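 Normalised binding curves from single clusters were fitted, and the median fit for each design is given as apparent KD. The clusters held designed RNA switches transcribed on-chip from Illumina sequencing clusters. These were titrated with SNAP-549-labelled MS2 coat protein (twofold steps from 0.7 or 1.5 nM to 3 µM, 0.8–1.5 h to 10–20 min per step) in 100 mM Tris-HCl pH 7.5, 80 mM KCl, 4 mM MgCl2, without or with constant ligand.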

The test system of data set [4] is MS2 coat protein. As to the kind of experiment: apparent KD of MS2 coat protein, switch ON state; designed switch direction (-1 OFF switch, 1 ON switch): 1; higher = weaker reporter binding. The conditions noted are these: FMN input: 0 or 200 uM; Eterna round: R93 (includes R88 designs). The method, boiled down: as §2

“AAAACAUGAGGAUCACCCAUGUAAAGAACGGUUAAUAAAAGUGAGGAUAUACAAAAUUUUAUAUAGUAGAAGGCACUGGGUACA [JR_SSNG3_Sub008]”: the “apparent KD of MS2 coat protein” value turned out to be 23.9 nM in the data set on MS2 coat protein [1] (input ligand: FMN 200 uM) and 20.6 nM with MS2 coat protein [1] (input ligand: none).
As for “AAAGAUUUUUAAGGAUAUCAGUGGCAAAGCCACUGAGAAGGUGAGGAUCACCCACCUACGUGACCCUGGAAACAGGGUCACGAA [#SharedSequence - ExNG1-14] (puzzle (switch architecture): Exclusion NG 1)”, the “apparent KD of MS2 coat protein” value in the data set with MS2 coat protein [2] (input ligand: FMN 200 uM) turned out to be 14.7 nM; in the data set on MS2 coat protein [2] (input ligand: none), 13.2 nM.
On the same counts, the results for “AAAUAAAUUGAAGGAUAUGACCCUCGAGGUGACUAAAAGUCACCUCGAGGGUCAGAAGGUCGAGGAUCACCCGACCUAAAUAAA [#SharedSequence SLExNG1: 4-1] (puzzle (switch architecture): Small Loop Exclusion NG 1)” are 8.19 nM and 7.16 nM.
The like results for “AAGAAGCUCACAGGAUAUCAGUAUAUGCUAUCUAGCGUAUUAAUGAACUGCUGAGAAGGGUGAGACAUGAGGAUCACCCAUGUA [Angeon] (puzzle (switch architecture): Small Loop Same State NG 1)” were, in that order, 54 nM and 120 nM.
On the same counts, the results for “AAUAAACAAUAAAAGACUGGAGCAAACUUUUGAGGAUCACCCAGAAGGCGUCACCUAAUAGGUGACGAGGAUAUGGAGCUCCAG [#SharedSequence IExNG# - 4] (puzzle (switch architecture): Inverted Exclusion NG 3)” are 135 nM and 17.3 nM.
Take “AAUAAUUCUCAAGGAUAUCAGUGGCAAAGCCACUGAGAAGGUGAGGAUCACCCACCUACGUGACGCUGGAAACAGCGUCACGAA [#SharedSequence ExNG1 - 34] (puzzle (switch architecture): Exclusion NG 1)”: the “apparent KD of MS2 coat protein” value was 164 nM in the data set with MS2 coat protein [2] (input ligand: FMN 200 uM) and 30.5 nM with MS2 coat protein [2] (input ligand: none).
The like results for “ACACGUCGUGAGAAGGAGGAUCACCCUUUCGAAAGAAAUAGCCACCGUGAAAACGGUGGCAAAUCCUAGGAUAUCACGACGUGA [#SharedSequence - IExNG2: 4] (puzzle (switch architecture): Inverted Exclusion NG 2)” were, in that order, 41.8 nM and 551 nM.
On to “ACAGGUCGUGAGAAGGAGAGUGGCACCGUCGAAAGACGGUGCAACUAGAAACCUAGAGGAUCACCCUAGGAUAUCACGACCUGA [#SharedSequence - IExNG2: 11] (puzzle (switch architecture): Inverted Exclusion NG 2)”, for which the “apparent KD of MS2 coat protein” value was 6.46 nM with MS2 coat protein [2] (input ligand: FMN 200 uM) and 6.32 nM in the data set on MS2 coat protein [2] (input ligand: none).
For the sequence “ACAUACUUUCGAGGAUAUCGGUGAUAAAUUUGACGAGAAGGCGAUAAAAGAUAUAAUCUUAUAGACAUGAGGAUCACCCAUGUA [JR_SSNG1_Sub015]”, the “apparent KD of MS2 coat protein” value was 36.8 nM with MS2 coat protein [1] (input ligand: FMN 200 uM) and 43.3 nM with MS2 coat protein [1] (input ligand: none).
On the same counts, the results for “AGAACAUGAGGAUCACCCAUGUUAAGGUCGGUAAAUAAGGGUGAGGAUAUGCUUAAAAUAAGGUAGCAGAAGGUGCUUGGUGCA [SameState #76 NG3]” are 146 nM and 163 nM.
“CACACAUGAGGAUCACCCAUGUCGUGGGCGGAAAACUGUGCACAGGAUAUGGUGAGGGCAACUCACCAGAAGGGUGGUCAGGAA [Zaenen]”: the entries for the “apparent KD of MS2 coat protein” value in the data set with MS2 coat protein [1] (input ligand: FMN 200 uM) and with MS2 coat protein [1] (input ligand: none) were 63.1 nM and 100 nM, respectively.
In the case of “CACACAUGGUGAGGAUAUGCAAAGGAUCACCUUGUAGAAGGCAUCAGGGUAGAAGGUGCAAGGAUCACCUGUAAGGAUAUAUCC [pwkr2 ssNG1 DX.24]”, the “apparent KD of MS2 coat protein” value with MS2 coat protein [1] (input ligand: FMN 200 uM) was 395 nM; with MS2 coat protein [1] (input ligand: none) it was 1210 nM.
For “CACCUAAAUCCUAGAGGAUCACCCUAGGAUAUCACCGUCGAGGUGCCAUAAUGGCACCUCGACGGUGAGAAGGAGGGUAAAUAA [#SharedSequence - SLExNG3: 9] (puzzle (switch architecture): Small Loop Exclusion NG 3)”, the entries for the “apparent KD of MS2 coat protein” value in the data set on MS2 coat protein [2] (input ligand: FMN 200 uM) and in the data set with MS2 coat protein [2] (input ligand: none) were 6.41 nM and 5.82 nM, respectively.
Turning to “CACGUCCACACAGGAUAUGCUGGACUUUGUCCAGCAGAAGGGUGACAACAUGAGGAUCACCCAUGUAGGACGUGUAUAUUUAAG [Mat - Same State NG 1 - Eli mod - D100]”, the “apparent KD of MS2 coat protein” value with MS2 coat protein [1] (input ligand: FMN 200 uM) worked out at 188 nM; in the data set with MS2 coat protein [1] (input ligand: none) it was 2090 nM.
“CAGCAAUUCUUAGGAUAUGCUCAGGAAUACUGAGCAGAAGGAAGAUAUACCUGAGGAUCACCCAGGUUAAACUGAAGCUGAAAA [Same State NG1 - A3C, U17G Submission 7A]”: the “apparent KD of MS2 coat protein” value was found to be 28.5 nM with MS2 coat protein [1] (input ligand: FMN 200 uM) and 21.2 nM in the data set with MS2 coat protein [1] (input ligand: none).
On the same counts, the results for “CAUGUCCUCACAGGAUAUGCUGGACUUUGUCCAGCAGAAGGGUGAACAUGAGGAUCACCCAUGUUGUGGACAUGUAUAUUUAAU [Denovo 12]” are 526 nM and 394 nM.
On the same counts, the results for “CGGAUGCAAAUAAAACAUGAGGAUCACCCAUGUGAGUCUCAUGAGGAUAUGCAGGUCAAAGACUUGCAGAAGGCAUGGCGUCCG [Mat - Same State NG 3 - JL Mod - D71]” are 107 nM and 1840 nM.
On the same counts, the results for “CGUGUGGCAUGAGGAUAUGGUCAGCUUUGCUGACCAGAAGGCAUGUCAAUAGACAUGAGGAUCACCCAUGUAGUUAACACACGA [Mat - Same State NG 1 - JL Mod - D23]” are 44 nM and 575 nM.
For “CUGAAGUCUGACCCUCGAAACAUGAGGAUCACCCAUGUAGUCAGAAGGCGAUUGUGAGCAGGAAUCGAGGAUAUGAACUAGUUU [EternaBot1300] (puzzle (switch architecture): Inverted Exclusion NG 3)”, the “apparent KD of MS2 coat protein” value in the data set on MS2 coat protein [2] (input ligand: FMN 200 uM) is 9.99 nM.
As to “CUUACUUUGUAGAAGGGUGACAUGAGGAUCACCCAUGUGCGUGGCCUGAAAGACCAGGGUACGCCACAGGAUAUACAAAGUAAG [Esatatina] (puzzle (switch architecture): Inverted Same State NG 2)”, the “apparent KD of MS2 coat protein” value with MS2 coat protein [2] (input ligand: FMN 200 uM) came out at 26.1 nM; in the data set on MS2 coat protein [2] (input ligand: none) it was 15.3 nM.
The like results for “CUUAGUUUGUAGAAGGGUGACAUGAGGAUCACCCAUGUGCGUAGCCUGAAAGACCAGGGUACGCCACAGGAUAUACAAAGUAAG [Onenisa] (puzzle (switch architecture): Inverted Same State NG 2)” were, in that order, 84.9 nM and 57.4 nM.
For the sequence “GCAGAAGGUGCAGAGGAUCACCCUGUAAGGAUAUGCAUUAGCAAGGAUAUACAGAGGAUCACCCUGUAGAAGGUGCACUACUCU [pwkr2 ssNG3 DX.2]”, the “apparent KD of MS2 coat protein” value in the data set with MS2 coat protein [1] (input ligand: FMN 200 uM) was 420 nM; with MS2 coat protein [1] (input ligand: none), 2070 nM.
Consider “GCGGGCCUCACAGGAUAUCUGGUCCCGACAUGAGGAUCACCCAUGUAGGGCAGCUUAAGAAUGCCAGAGAAGGGUGACCAAUAU [Xexemaeron]”, for which the “apparent KD of MS2 coat protein” value in the data set on MS2 coat protein [1] (input ligand: FMN 200 uM) is 102 nM; with MS2 coat protein [1] (input ligand: none), 315 nM.
On to “GCUGCUAUCGCAGGAUAUUACAUGGGAAAGAAUACAUGAGGAUCACCCAUGUAAAAGAUCAUAAAUAAGAAGGGCGAUAGCAGC [Lame State 6 - Jieux - Same State NG 2]”, for which the “apparent KD of MS2 coat protein” value with MS2 coat protein [1] (input ligand: FMN 200 uM) was determined as 159 nM; in the data set on MS2 coat protein [1] (input ligand: none), 774 nM.
On the same counts, the results for “GCUGUCGCAUGAGGAUAUGGUCAGCUUUGCUGACCAGAAGGCAUGUCGAUAGACAUGAGGAUCACCCAUGUAGUAAAGACAGCA [jl-sng1-2.08 jl mod]” are 66.6 nM and 693 nM.
In the case of “GGCAGCCCUCAGAAGGGAGUGCGAUAAUCGCACUCAGGAUAUGAGGAUCACCCAUAUCAAGCUGCCACUGAGGCAAAGCCUCAG [#SharedSequence - IEx NG 1-1] (puzzle (switch architecture): Inverted Exclusion NG 1)”, the “apparent KD of MS2 coat protein” value is 57.4 nM in the data set on MS2 coat protein [2] (input ligand: FMN 200 uM) and 12.1 nM in the data set on MS2 coat protein [2] (input ligand: none).
With “GGUCGUCACAUCUACAUGAGGAUCACCCAUGUCGAAAGACAUGAGGAUAUGCAUCCUAAUUGGAUGCAGAAGGCAUGGACGACC [Mat - Same State NG 3 - JL Mod - D22]”, the results for the “apparent KD of MS2 coat protein” value in the data set on MS2 coat protein [1] (input ligand: FMN 200 uM) and in the data set on MS2 coat protein [1] (input ligand: none) were 65.1 nM and 1920 nM, respectively.
The like results for “UCACUCACGUUAGGAUAUGGAUCGGAAAACGAUCCAGAAGGAACCUGCAAACCUGAGGAUCACCCAGGUUCCAAUAACGAGUGA [SameSame 7 - Jieux - Same State NG 1]” were, in that order, 259 nM and 368 nM.
The like results for “UGUUUGAGCAUAGGAUAUACUGGGAAGGUCCACAUGAGGAUCACCCAUGUAGAGGCUGUUAGACAGUAGAAGGGUGAUCCGAUA [Zariatbege]” were, in that order, 410 nM and 9.94 nM.
The like results for “UUACGUCCCGUUUACAUGAGGAUCACCCAUGUCGAAAGAACCGAGGAUAUGCUACCUAGUUGGUAGCAGAAGGCGGAAACGUCG [salish99_SSNG3_r02_008]” were, in that order, 42.3 nM and 25.9 nM.
As to “UUUAGGAAGAGAGAGGAUAUCCAAAGGAAAACAUGAGGAUCACCCAUGUAAAAGGUAGGAAAUUGGGAGAAGGCUCAAGAGAGAG [salish99-ss2-078]”, the “apparent KD of MS2 coat protein” value amounted to 16.5 nM in the data set with MS2 coat protein [3] and 5.84 nM in the data set with MS2 coat protein [4].
